In patent US20220047631A1 (UNIVERSITY OF CHICAGO, published 2022):
Where a chain is given by its changes, count along the chain named. Where no end group is shown, it is not given here. The star is where a group is joined. GalNAc = N-acetyl galactosamine (O-linked to Thr, Tn antigen); Biotin = O=C1N[C@H]2[C@H](CS[C@H]2CCCCC(=O)*)N1

What was measured:
[1] = target: T1, Tn-OTS8 peptide ERGT(GalNAc)KPPLEELSGK-biotin, monomer (murine); experiment: flow cytometry of CAR-transduced mouse T cells with biotinylated peptide
T1 construct: also called glycosylated OTS-8 peptide (biotinylated)
T1 peptide: ERGT(GalNAc)KPPLEELSGK(Biotin)

[2] = target: T2, Tn-OTS8 peptide KAPLVPTQRERGT(GalNAc)KPPLEELSTSATSDHDH (murine, GalNAc (Tn) on the Thr of ...RERGT(GalNAc)KPP...); experiment: ELISA, peptide coated at 2.5 or 5 µg/ml, biotinylated scFv, streptavidin-HRP
T2 construct: Coated on ELISA plates at 2.5 or 5 µg/ml; also called OTS8p with Tn
T2 peptide: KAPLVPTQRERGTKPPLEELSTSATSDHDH

[3] = target: T1, Tn-OTS8 peptide …; experiment: Table 3, column 'Tn-linked antigen' recognized by the scFv
[4] = target: T1, Tn-OTS8 peptide …; experiment: flow cytometry of yeast-displayed clone with 1 or 10 nM Tn-OTS8 peptide
Description: FIG. 20. […] 10 clones were isolated from Tn-OTS8 peptide-sorted post-sort-4 and post-sort-5 populations. Each clone was stained with 1 or 10 nM Tn-OTS8 peptide and analyzed by flow cytometry. The mean fluorescence units (MFUs) of each clone is plotted on Y-axis. […] In addition, plasmid DNA was isolated from each clone to determine the kind of mutation(s), and frequency of mutation(s) (n). The sequence of wild-type (wt) and mutated residues is shown in black and maroon, respectively.

Tn-OTS8 peptide tetramer = target: T3, Tn-OTS8 peptide tetramer (murine, UniProt P22629 37-163 (Streptomyces avidinii entry), limits assumed, PE label; GalNAc (Tn) on Thr 4; C-terminal Lys-biotin); experiment: flow cytometry of yeast-displayed clone with 10 nM OTS8p tetramer [B]
T3 construct: How the tetramer was made is not spelled out; streptavidin-PE is the reagent named with it; also called Tn-OTS8p tetramer; tetramers of glycosylated OTS-8 peptide

[5] = target: T1, Tn-OTS8 peptide …; experiment: yeast display, flow cytometry titration with peptide
[6] = target: T1, Tn-OTS8 peptide …; experiment: yeast display, 30 nM biotinylated peptide chased with 100 nM unbiotinylated peptide over 4 hours
Description: (§1) FIG. 21. […] (B) To determine their off-rates, each mutant was stained with 30 nM biotinylated Tn-OTS8 peptide. After washing, the mutants were stained with 100 nM Tn-OTS8 peptide (not biotinylated). The decrease in binding to biotinylated Tn-OTS8p by each mutant was measured over a period of 4 hours, to calculate approximate half-lives (t_{1/2}) and off-rates (koff). […] See Brooks et al., Proc. Natl. Acad. Sci. (USA) 107(22):10056-10061 (2010).

[7] = target: T1, Tn-OTS8 peptide …; experiment: dissociation on yeast: 30 nM biotinylated Tn-OTS8 peptide, wash, chase with 100 nM non-biotinylated peptide; % binding over 4 hours [B]
Description: as §1

[8] = target: T1, Tn-OTS8 peptide …; experiment: yeast display titration compared with a literature value
[9] = target: T1, Tn-OTS8 peptide …; experiment: yeast display dissociation compared with a literature value
Description: as §1

[10] = target: T1, Tn-OTS8 peptide …; experiment: dissociation on yeast: 30 nM biotinylated Tn-OTS8 peptide, wash, chase with 100 nM non-biotinylated peptide; sheet adds: 30-fold slower than 237mAb:OTS8p [B]
Description: as §1

[11] = target: T1, Tn-OTS8 peptide …; experiment: flow cytometry titration of the yeast-displayed mutant with biotinylated OTS8p, 0.1 to 100 nM [A]
GTKA = target: T4, GTKA; experiment: ELISA; x axis = coating concentration of the peptide; 237Ab fixed at 10 µg/ml [left]
T4 construct: truncation series from GTKAAAA; also called Tn-peptide GTKA, immobilized (C-terminal truncation)
T4 peptide: Biotin-APLVPTQRERGT(GalNAc)KA

GTK = target: T5, GTK; experiment: as above
T5 construct: truncation series from GTKAAAA; also called Tn-peptide GTK, immobilized (C-terminal truncation)
T5 peptide: Biotin-APLVPTQRERGT(GalNAc)K

T3 sequence (P22629 37-163 limits assumed): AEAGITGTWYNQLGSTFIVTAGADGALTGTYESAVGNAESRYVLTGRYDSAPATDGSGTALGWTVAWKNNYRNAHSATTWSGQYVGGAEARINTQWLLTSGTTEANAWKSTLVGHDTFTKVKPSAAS

B1: 237-LGQ-CAR on transduced C57BL/6 mouse T cells (other)
scFv: DIQLTQSPLSLPVSLGDQASISCRSSQSLVHSNGNTYLHWYLQKPGQSPKLLIYKVSNRFSGVPDRFSGSGSGTDFTLKISSVEAEDLGVYFCSQSLGQPTFGGGTKLEIKGGGGSGGGGSGGGGSQVQLQQSGGGLVQPGGSMKIFCAASGFTFSDAWMDWVRQSPEKGLEWVAEIRNKANNHETYYAESVKGRFTITRDDSKSRMSLQMNSLRAEDTGIYYCSGGKVRNAYWGQGTTVTVSS
notes: also called CAR with dual specificity (LGQ); not shown: hinge, CD28 and CD3zeta parts of the CAR
**Q.** Does B1 bind [1]?
**A.** binds

B2: soluble 237 scFv monomer (biotinylated) (scFv)
scFv: B1 scFv with L97T, G98H, Q99V
modifications: biotin on the C-terminal Avitag
notes: also called monomeric scFv; b237; not shown: N-terminal 6xHis tag; C-terminal Avitag
**Q.** B2 was tested. Which Kd [2] did it give?
**A.** 5 nM

B3: yeast-displayed 237 scFv TNGK mutant (scFv, not shown: large carriers; small tags and cut ends)
scFv: B1 scFv with S96T, L97N, Q99K
**Q.** Does B3 bind [3]?
**A.** binds

B4: 237-TNGK-CAR on transduced C57BL/6 mouse T cells (other)
scFv: B1 scFv with S96T, L97N, Q99K
notes: also called CAR with dual specificity (TNGK); not shown: hinge, CD28 and CD3zeta parts of the CAR
**Q.** Does B4 bind [1]?
**A.** binds

B5: T-WA (wt: STHV) (scFv)
scFv (VL-linker-VH): B1 scFv with S96T, L97T, G98W, Q99A
notes: isolated after sort 4 with Tn-OTS8p; also called clones O4-1, O4-2, O4-9
**Q.** Does B5 bind [4]?
**A.** binds

B6: --WG (wt: STHV) (scFv)
scFv (VL-linker-VH): B1 scFv with L97T, G98W, Q99G
notes: isolated after sort 4 with Tn-OTS8p; also called clone O4-3
**Q.** Does B6 bind [4]?
**A.** binds

B7: -VWE (wt: STHV) (scFv)
scFv (VL-linker-VH): B1 scFv with L97V, G98W, Q99E
notes: isolated after sort 5 with Tn-OTS8p; also called clone O5-8
**Q.** Does B7 bind [4]?
**A.** binds

B8: MLV (wt CDRL2: KVS) (scFv)
scFv (VL-linker-VH): B1 scFv with K55M, V56L, S57V, L97T, G98H, Q99V
**Q.** Does B8 bind (Tn-OTS8 peptide tetramer)?
**A.** no binding (tested: 10 nM)

B9: yeast-displayed 237 scFv WE mutant (scFv)
scFv: B1 scFv with L97T, G98W, Q99E
notes: not shown: yeast display carriers: N-terminal Aga2 and HA tag, C-terminal c-myc tag
**Q.** B9 was tested. Which Kd [5] did it give?
**A.** ~5 nM

**Q.** And the “half-life (t1/2)” value [6]?
**A.** ~30 min

**Q.** What about the t1/2 [7] of the same binder?
**A.** 27 min

**Q.** What about the “fold higher affinity than the 237 IgG Fab domain (literature SPR)” value [8] of the same binder?
**A.** ~30 fold

**Q.** And the “fold slower off-rate than the 237 monoclonal antibody Fab with OTS8 peptide (literature)” value [9]?
**A.** 30 fold

**Q.** And the koff [10]?
**A.** 0.00042 s⁻¹

**Q.** What about the Kd [11] of the same binder?
**A.** 4.3 nM

B10: yeast-displayed 237 scFv LGQ mutant (scFv)
scFv: B1 scFv
notes: as for B9
**Q.** Does B10 bind [3]?
**A.** binds

B11: 237 monoclonal antibody (antibody, V domains shown)
VH: QVQLQQSGGGLVQPGGSMKIFCAASGFTFSDAWMDWVRQSPEKGLEWVAEIRNKANNHETYYAESVKGRFTITRDDSKSRMSLQMNSLRAEDTGIYYCSGGKVRNAYWGQGTTVTVSS
VL: DIQLTQSPLSLPVSLGDQASISCRSSQSLVHSNGNTYLHWYLQKPGQSPKLLIYKVSNRFSGVPDRFSGSGSGTDFTLKISSVEAEDLGVYFCSQSTHVPTFGGGTKLEIK
notes: Murine monoclonal IgG
**Q.** Does B11 bind (GTKA)?
**A.** no binding (tested: 1000 nM peptide for coating)

**Q.** Does B11 bind (GTK)?
**A.** no binding (tested: 1000 nM peptide for coating)
